This note sets out measurements from doi:10.1101/2021.06.14.21258871.

This assay deals with recombinant stabilized complete spike protein (SARS-CoV-2), pre-fusion stabilised (SARS-CoV-2) (UniProt P0DTC2). Briefly: affinity purification with mass spectrometry.

On to “human serum albumin (from UniProt P02768 25-609) (natural protein)”, for which the mean MALDI-ToF peak intensity of eluted HSA was found to be 1920 AU and the percent of samples in which HSA was detected in the eluate was found to be 72%.
